Measured values published in patent publication US9618524B2, “Method, composition, isolation and identification of a plaque particle and related biomarker” (Plaxgen Inc., priority 2012, dated 2017).

B1: Ig gamma-3 chain C region (protein)
chain: ASTKGPSVFPLAPCSRSTSGGTAALGCLVKDYFPEPVTVSWNSGALTSGVHTFPAVLQSSGLYSLSSVVTVPSSSLGTQTYTCNVNHKPSNTKVDKRVELKTPLGDTTHTCPRCPEPKSCDTPPPCPRCPEPKSCDTPPPCPRCPEPKSCDTPPPCPRCPAPELLGGPSVFLFPPKPKDTLMISRTPEVTCVVVDVSHEDPEVQFKWYVDGVEVHNAKTKPREEQYNSTFRVVSVLTVLHQDWLNGKEYKCKVSNKALPAPIEKTISKTKGQPREPQVYTLPPSREEMTKNQVSLTCLVKGFYPSDIAVEWESSGQPENNYNTTPPMLDSDGSFFLYSKLTVDKSRWQQGNIFSCSVMHEALHNRFTQKSLSLSPGK
B2: Lactotransferrin (protein)
chain: GRRRSVQWCAVSQPEATKCFQWQRNMRKVRGPPVSCIKRDSPIQCIQAIAENRADAVTLDGGFIYEAGLAPYKLRPVAAEVYGTERQPRTHYYAVAVVKKGGSFQLNELQGLKSCHTGLRRTAGWNVPIGTLRPFLNWTGPPEPIEAAVARFFSASCVPGADKGQFPNLCRLCAGTGENKCAFSSQEPYFSYSGAFKCLRDGAGDVAFIRESTVFEDLSDEAERDEYELLCPDNTRKPVDKFKDCHLARVPSHAVVARSVNGKEDAIWNLLRQAQEKFGKDKSPKFQLFGSPSGQKDLLFKDSAIGFSRVPPRIDSGLYLGSGYFTAIQNLRKSEEEVAARRARVVWCAVGEQELRKCNQWSGLSEGSVTCSSASTTEDCIALVLKGEADAMSLDGGYVYTAGKCGLVPVLAENYKSQQSSDPDPNCVDRPVEGYLAVAVVRRSDTSLTWNSVKGKKSCHTAVDRTAGWNIPMGLLFNQTGSCKFDEYFSQSCAPGSDPRSNLCALCIGDEQGENKCVPNSNERYYGYTGAFRCLAENAGDVAFVKDVTVLQNTDGNNNEAWAKDLKLADFALLCLDGKRKPVTEARSCHLAMAPNHAVVSRMDKVERLKQVLLHQQAKFGRNGSDCPDKFCLFQSETKNLLFNDNTECLARLHGKTTYEKYLGPQYVAGITNLKKCSTSPLLEACEFLRK
B3: Ig heavy chain V-III region WEA (protein)
chain: EVQLVESGGGLVQPGGSLRLSCAASGFTFSSYEMNWVRQAPGKGLEWVSYISSSGSTIYYADSVKGRFTISRDNAKNSLYLQMNSLRAEDTAVYYCAR
B4: Junction plakoglobin (protein)
chain: MEVMNLMEQPIKVTEWQQTYTYDSGIHSGANTCVPSVSSKGIMEEDEACGRQYTLKKTTTYTQGVPPSQGDLEYQMSTTARAKRVREAMCPGVSGEDSSLLLATQVEGQATNLQRLAEPSQLLKSAIVHLINYQDDAELATRALPELTKLLNDEDPVVVTKAAMIVNQLSKKEASRRALMGSPQLVAAVVRTMQNTSDLDTARCTTSILHNLSHHREGLLAIFKSGGIPALVRMLSSPVESVLFYAITTLHNLLLYQEGAKMAVRLADGLQKMVPLLNKNNPKFLAITTDCLQLLAYGNQESKLIILANGGPQALVQIMRNYSYEKLLWTTSRVLKVLSVCPSNKPAIVEAGGMQALGKHLTSNSPRLVQNCLWTLRNLSDVATKQEGLESVLKILVNQLSVDDVNVLTCATGTLSNLTCNNSKNKTLVTQNSGVEALIHAILRAGDKDDITEPAVCALRHLTSRHPEAEMAQNSVRLNYGIPAIVKLLNQPNQWPLVKATIGLIRNLALCPANHAPLQEAAVIPRLVQLLVKAHQDAQRHVAAGTQQPYTDGVRMEEIVEGCTGALHILARDPMNRMEIFRLNTIPLFVQLLYSSVENIQRVAAGVLCELAQDKEAADAIDAEGASAPLMELLHSRNEGTATYAAAVLFRISEDKNPDYRKRVSVELTNSLFKHDPAAWEAAQSMIPINEPYGDDMDATYRPMYSSDVPLDPLEMHMDMDGDYPIDTYSDGLRPPYPTADHMLA
B5: Phosphatidylinositol-glycan-specific phospholipase D (protein)
chain: CGLSTHVEIGHRALEFLQLHNGRVNYRELLLEHQDAYQAGIVFPDCFYPSICKGGKFHDVSESTHWTPFLNASVHYIRENYPLPWEKDTEKLVAFLFGITSHMAADVSWHSLGLEQGFLRTMGAIDFHGSYSEAHSAGDFGGDVLSQFEFNFNYLARRWYVPVKDLLGIYEKLYGRKVITENVIVDCSHIQFLEMYGEMLAVSKLYPTYSTKSPFLVEQFQEYFLGGLDDMAFWSTNIYHLTSFMLENGTSDCNLPENPLFIACGGQQNHTQGSKMQKNDFHRNLTTSLTESVDRNINYTERGVFFSVNSWTPDSMSFIYKALERNIRTMFIGGSQLSQKHVSSPLASYFLSFPYARLGWAMTSADLNQDGHGDLVVGAPGYSRPGHIHIGRVYLIYGNDLGLPPVDLDLDKEAHRILEGFQPSGRFGSALAVLDFNVDGVPDLAVGAPSVGSEQLTYKGAVYVYFGSKQGGMSSSPNITISCQDIYCNLGWTLLAADVNGDSEPDLVIGSPFAPGGGKQKGIVAAFYSGPSLSDKEKLNVEAANWTVRGEEDFSWFGYSLHGVTVDNRTLLLVGSPTWKNASRLGHLLHIRDEKKSLGRVYGYFPPNGQSWFTISGDKAMGKLGTSLSSGHVLMNGTLKQVLLVGAPTYDDVSKVAFLTVTLHQGGATRMYALTSDAQPLLLSTFSGDRRFSRFGGVLHLSDLDDDGLDEIIMAAPLRIADVTSGLIGGEDGRVYVYNGKETTLGDMTGKCKSWITPCPEEKAQYVLISPEASSRFGSSLITVRSKAKNQVVIAAGRSSLGARLSGALHVYSLGSD
B6: Tetranectin (protein)
chain: EPPTQKPKKIVNAKKDVVNTKMFEELKSRLDTLAQEVALLKEQQALQTVCLKGTKVHMKCFLAFTQTKTFHEASEDCISRGGTLGTPQTGSENDALYEYLRQSVGNEAEIWLGLNDMAAEGTWVDMTGARIAYKNWETEITAQPDGGKTENCAVLSGAANGKWFDKRCRDQLPYICQFGIV
B7: Platelet factor 4 variant (protein)
chain: FARAEAEEDGDLQCLCVKTTSQVRPRHITSLEVIKAGPHCPTAQLIATLKNGRKICLDLQALLYKKIIKEHLES
B8: Isoform 2 of Ficolin-3 (protein)
chain: QEHPSCPGPRELEASKVVLLPSCPGAPGSPGEKGAPGPQGPPGPPGKMGPKGEPGPRNCRELLSQGATLSGWYHLCLPEGRALPVFCDMDTEGGGWLVFQRRQDGSVDFFRSWSSYRAGFGNQESEFWLGNENLHQLTLQGNWELRVELEDFNGNRTFAHYATFRLLGEVDHYQLALGKFSEGTAGDSLSLHSGRPFTTYDADHDSSNSNCAVIVHGAWWYASCYRSNLNGRYAVSEAAAHKYGIDWASGRGVGHPYRRVRMMLR

biological target: T1, alpha-synuclein plaque particles (Homo sapiens, UniProt P37840); assay: Mass spectroscopy proteomics, semi-quantitative binding affinity of serum proteins (plaqueproteome, Table 2); conditions: higher number = stronger affinity
T1 construct: 140 amino acids polypeptide
Outline: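 AD-subject plasma or serum (800 μL of 50%) mixed with 30 μg preformed alpha-synuclein aggregates for 1 h at 37 °C; Thioflavin S-positive particles isolated by flow sorting. After reduction, acrylamide alkylation and overnight tryptic digestion, serum proteins identified by MS/MS with Sequest and Scaffold.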

Going from B1 to B2, the “Semi-quantitative analysis of proteins binding to different plaque particles: Synuclein” value falls from 14 to 0.

First: B3
Second: B4
The “Semi-quantitative analysis of proteins binding to different plaque particles: Synuclein” value of the first is higher: 1 for the first, 0 for the second.

B5 and B6 are the same in “Semi-quantitative analysis of proteins binding to different plaque particles: Synuclein” value: 0 for the first, 0 for the second.

B7 and B8 are the same in “Semi-quantitative analysis of proteins binding to different plaque particles: Synuclein” value: 1 for the first, 1 for the second.

biological target: T2, Abeta-42 plaque particles (Homo sapiens, UniProt P05067); assay: as above; conditions: higher number = stronger affinity
T2 construct: Abeta 1-42
Outline: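 AD patient serum or plasma (50% in PBS) was incubated with Abeta-42 aggregates (30 μg) for 1 h at 37 °C, then stained with Thioflavin S for 30 min. Labeled particles were FACS-sorted, trypsin/Lys-C digested overnight and analyzed by MS/MS. Sequest searched human UniProt; Scaffold/Protein Prophet validated the identifications.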

First: B1
Second: B2
The “Semi-quantitative analysis of proteins binding to different plaque particles: Abeta-42” value of the first is higher: 11 for the first, 5 for the second.

B3 and B4 are the same in “Semi-quantitative analysis of proteins binding to different plaque particles: Abeta-42” value: 2 for the first, 2 for the second.

B5 and B6 are the same in “Semi-quantitative analysis of proteins binding to different plaque particles: Abeta-42” value: 0 for the first, 0 for the second.

B7 and B8 are the same in “Semi-quantitative analysis of proteins binding to different plaque particles: Abeta-42” value: 0 for the first, 0 for the second.

tested on: Tau plaque particles; assay: as above; set-up: species or system human; conditions: higher number = stronger affinity
Outline: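 Synthetic Tau-74 and Tau-275 peptides (1 mg/mL PBS, 37° C, 2 h) aggregated; 30 μg aggregates incubated with 50% serum/plasma 1 h at 37° C, stained with Thioflavin S, and plaque particles sorted by flow cytometry. Bound proteins trypsin-digested and identified by MS/MS against human UniProt.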

Going from B1 to B2, the “Semi-quantitative analysis of proteins binding to different plaque particles: Tau” value falls from 13 to 0.

Going from B3 to B4, the “Semi-quantitative analysis of proteins binding to different plaque particles: Tau” value falls from 1 to 0.

Going from B5 to B6, the “Semi-quantitative analysis of proteins binding to different plaque particles: Tau” value falls from 2 to 0.

B7 and B8 are the same in “Semi-quantitative analysis of proteins binding to different plaque particles: Tau” value: 0 for the first, 0 for the second.

tested on: Low density cholesterol (Chl small) plaque particles; assay: as above; set-up: species or system human; conditions: higher number = stronger affinity
Outline: (§1)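 Read-out is MS/MS protein identification (Sequest, strict trypsin, 20 ppm parent tolerance; Scaffold probabilities) of serum proteins bound to flow-sorted cholesterol plaque particles. These particles formed when 50% atherosclerotic serum was incubated with 30 μg cholesterol aggregates for 1 hr at 37° C.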

Going from B1 to B2, the “Semi-quantitative analysis of proteins binding to different plaque particles: Chl small” value falls from 11 to 0.

Compared with B3, B4 is lower in “Semi-quantitative analysis of proteins binding to different plaque particles: Chl small” value: 1 for the first, 0 for the second.

B5 and B6 are the same in “Semi-quantitative analysis of proteins binding to different plaque particles: Chl small” value: 1 for the first, 1 for the second.

B7 and B8 are the same in “Semi-quantitative analysis of proteins binding to different plaque particles: Chl small” value: 0 for the first, 0 for the second.

tested on: High Density cholesterol (Chl Large) plaque particles; assay: as above; set-up: species or system human; conditions: higher number = stronger affinity
Outline: as §1

First: B1
Second: B2
The “Semi-quantitative analysis of proteins binding to different plaque particles: Chl Large” value of the first is higher: 15 for the first, 0 for the second.

First: B3
Second: B4
The “Semi-quantitative analysis of proteins binding to different plaque particles: Chl Large” value of the first is higher: 1 for the first, 0 for the second.

Going from B5 to B6, the “Semi-quantitative analysis of proteins binding to different plaque particles: Chl Large” value falls from 1 to 0.

First: B7
Second: B8
The “Semi-quantitative analysis of proteins binding to different plaque particles: Chl Large” value of the first is higher: 1 for the first, 0 for the second.
